Tests used:
Conditions in all cases: remark: other sources report otherwise
[1] = biological target: myc-LRRK2 (human wild-type full-length leucine rich repeat kinase 2, myc-tagged) (human) (UniProt Q5S007); assay: SEC
[2] = biological target: myc-LRRK2 (human wild-type full-length leucine rich repeat kinase 2, myc-tagged) (human) (UniProt Q5S007); assay: native gel or EMSA
[3] = biological target: myc-LRRK2 (human wild-type full-length leucine rich repeat kinase 2, myc-tagged) (human) (UniProt Q5S007); assay: glycerol velocity gradient

Measured: stoichiometry N

myc-LRRK2 (human wild-type full-length leucine rich repeat kinase 2, myc-tagged), Q5S007 1-2527
2: all assays above
